Results on six molecules are retold here after US6204034A, “Leukotriene C4 synthase” (Merck Frosst Canada & Co., priority 1994, dated 2001).

Broadly, the Km is the substrate concentration at which the rate is half of its maximum.

Data set [1] deals with T1, THP-1 microsomal membrane protein (Homo sapiens, UniProt Q16873).
T1 construct: 0.3 mg of THP-1 microsomal membrane protein; endogenous in cells; host or cells: THP-1 cells (microsomal membranes)
T1 sequence (Q16873 1-150): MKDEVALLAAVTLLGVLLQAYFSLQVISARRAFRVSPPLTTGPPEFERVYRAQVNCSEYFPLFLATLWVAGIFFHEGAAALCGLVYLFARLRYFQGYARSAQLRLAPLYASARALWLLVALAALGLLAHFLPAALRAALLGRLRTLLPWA
The data set can be described thus: Photoaffinity labelling of THP-1 cell membranes. It counts as binding. The conditions noted are these: 20 pM ligand, 0.3 mg THP-1 microsomal membrane protein, SDS-gel autoradiography. As for the experimental part: The mixtures were incubated in 1.5 mL microcentrifuge tubes for 30 min. at 25° C. then transferred to 35 mm diameter cluster plate wells for photolysis. The samples in cluster plates were cooled for 5 min. at 4° C. then illuminated from above with a 40W ultraviolet light source (Phillips, λmax =350 nm) at a distance of 5 cm for 2 min. at 4° C. The samples were then transferred back into 1.5 mL microcentrifuge tubes and the membranes were re-isolated by centrifugation for 15 min. at 200,000×g. The resulting pellets were dissociated in SDS-containing sample buffer, denatured at 95° C. for 5 min. and then the proteins were resolved by SDS-gel electrophoresis. Radioactive bands in the dried gels were visualized by autoradiography and quantified by laser densitometry.

Data set [2] has as its target T2, LTC4 synthase (Homo sapiens, UniProt Q16873).
T2 sequence (Q16873 1-150): T1 sequence (Q16873 1-150)
Nature of the data set: Measurement of LTC4 synthase activity (LTC4 formation from LTA4 and reduced glutathione, reverse-phase HPLC). On the set-up: endogenous in cells; host or cells: THP-1 cells; some values from human lung tissue. It counts as biochemical. The protocol: The mixtures were allowed to stand for a minimum of 30 min. at 4° C. (or overnight). […] The bulk of the resulting supernatant (250 μl) was then transferred to sample vials for reverse-phase HPLC of which 200 μl was injected for analysis.
Analysis of LTC4 Formation by Reverse-Phase HPLC--The reaction products formed in the incubation mixtures described above were resolved by isocratic reverse-phase HPLC on a Waters Associates Novapak C18 column (3.9×150 mm, 4μ particle size). The mobile phase was acetonitrile:methanol:water:acetic acid at 54:14:28:1 adjusted to pH 5.6 with 10 NaOH and was pumped at a flow rate of 1.0 mL/min. LTC4 was quantified by on-line measurement of the optical density at 280 nm. The LTC4 peak was identified by its retention time compared to a synthetic standard (normally 10 min.).

Data set [3] has as its target T2, LTC4 synthase. The conditions noted are these: LTC2-X-biotin:streptavidin-agarose column.
The nature of data set [4]: Longevity of LTA4 free acid in mock incubation mixtures under aqueous conditions. The class given is physicochemical. The conditions noted are these: mock incubation mixtures with 0.05% (w/v) bovine serum albumin and potassium phosphate buffer. The text has this:
Hydrolysis of LTA4 Methyl Ester--The methyl ester of leukotriene A4 was hydrolyzed to the free acid essentially as described by Carrier, D. J. et al., Prostaglandins Leukot. Essent. Fatty Acids, 34, 27-30 (1988). The hydrolysis was monitored by determination of LTA4 by reverse-phase HPLC at pH 10 (Wynalda, M. A. et al., Anal. Chem., 54, 1079-1082 (1982)) except that LTA4 and LTA4 -methyl ester were eluted by a gradient of 20 to 70% (v/v) acetonitrile in borate buffer instead of isocratically as described in Wynalda et al. LTA4 -methyl ester (1.0 mg in hexane) was dried under a stream of nitrogen and then dissolved in 4 mL of 0.25 M NaOH:acetone (2:8 v/v). Following incubation for 60 min. at 25° C., the hydrolysis mixture was portioned into aliquots that were stored at -80° C. (up to 1 month). Following this procedure, the recovery of LTA4 free acid was >95% as confirmed by analysis of the hydrolysis products by reverse-phase HPLC under alkaline conditions (Wynalda et al.).

Substrate in data set [5]: N[C@@H](CCC(=O)N[C@@H](CS)C(=O)NCC(=O)O)C(=O)O
The data set can be described thus: purified protein, by the assay type. The following applies: 25.0 °C.

Substrate in data set [6]: CCCCCC=CCC=CC=CC=CC1OC1CCCC(=O)O
Nature of the data set: purified protein, by the assay type. It counts as biochemical, human. The following applies: 25.0 °C.

Where [7] appears, read: other: THP-1 cells LTC4 synthase.
[8] abbreviates: other: human monocytes LTC4 synthase.
The mark [9] stands for this setting: purification fractions from 2×10^11 THP-1 cells.

Regarding `CCCCC/C=C\C\C=C/C=C/C=C/[C@@H](SC[C@H](NC(=O)CC[C@H](NC(=O)CCCCCNC(=O)c1cc([125I])c(N=[N+]=[N-])cc1O)C(=O)O)C(=O)NCC(=O)O)[C@@H](O)CCCC(=O)O` [Azido^125 I LTC4], the “photoaffinity radiolabelling of membrane polypeptide” value in data set [1] is “specifically radiolabelled a single membrane polypeptide”.

For the molecule `CCCCCC=CCC=CC=CC=CC1OC1CCCC(=O)OC` (stereo not shown) [LTA4 methyl ester, methyl ester of leukotriene A4, reference compound], the Preferred substrate result on LTC4 synthase [2] is on record as “LTA4 free acid >> LTA4 methyl ester”.

Turning to `N[C@@H](CCC(=O)N[C@@H](CS)C(=O)NCC(=O)O)C(=O)O` [GSH, Reduced glutathione, reference compound], the “effect on LTC4 synthase binding to the affinity resin” value at LTC4 synthase [3] was “inhibited LTC4 synthase binding to the affinity resin”.

In the case of `[Cl-].[Na+]` [NaCl], the “effect on LTC4 synthase binding to the affinity resin” value on LTC4 synthase [3] is “inhibited LTC4 synthase binding to the affinity resin”.

With `CCCCCC=CCC=CC=CC=CC1OC1CCCC(=O)O` (stereo not shown) [LTA4, leukotriene A4, reference compound], the Preferred substrate result at LTC4 synthase [2] is given as “LTA4 free acid >> LTA4 methyl ester”. In addition, the half-life entry in data set [4] is given as “approximately 30 min”.

B1: LTC4 synthase (Homo sapiens) (protein)
chain: T1 sequence (Q16873 1-150)
notes: endogenous in cells; host or cells: THP-1 cells; some values from human lung tissue
Regarding B1, the Km in data set [5] (setting [7]) was 1670 µM; in data set [5] (setting [8]), 1200 µM; in data set [6] (setting [7]), 9.89 µM; in data set [6] (setting [8]), 5.6 µM. In the data set with LTC4 synthase [2] (setting [9]), this molecule showed an Activity of 1.378 nmol · min^-1 .multid. The “Spec. Activity” value with LTC4 synthase [2] (setting [9]) amounted to 4135 nmol · min^-1 .multid. For the same molecule, in the data set with LTC4 synthase [2] (relative to specific activity in harvested cells set at 1.00), the “Rel. Spec. Activity” value was 27,384.
